Experiments:
G9a and GLP = target: T1, G9a and GLP (Homo sapiens, UniProt Q96KQ7+Q9H9B1); experiment: Triple SILAC pull-down after UNC0638 treatment of 293T cells, DMSO/UNC0638 ratio of protein captured by 3×MBT; assay type: cell-based; set-up: endogenous in cells; host or cells: HEK 293T; conditions: for Protein Ratios DMSO/UNC0638: SILAC ratio of protein captured by 3xMBT, 293T cells treated 24 hours with UNC0638 at 2.5 μM or DMSO;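 on all read-outs here: mass spectrometry (Q-Exactive) SILAC quantitation, DMSO/UNC0638 ratio computed after subtracting 3×MBTD355N mutant pull-down background, only proteins with at least twofold 3×MBT over mutant signal considered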
T1 sequence (Q96KQ7 2-1210 limits assumed): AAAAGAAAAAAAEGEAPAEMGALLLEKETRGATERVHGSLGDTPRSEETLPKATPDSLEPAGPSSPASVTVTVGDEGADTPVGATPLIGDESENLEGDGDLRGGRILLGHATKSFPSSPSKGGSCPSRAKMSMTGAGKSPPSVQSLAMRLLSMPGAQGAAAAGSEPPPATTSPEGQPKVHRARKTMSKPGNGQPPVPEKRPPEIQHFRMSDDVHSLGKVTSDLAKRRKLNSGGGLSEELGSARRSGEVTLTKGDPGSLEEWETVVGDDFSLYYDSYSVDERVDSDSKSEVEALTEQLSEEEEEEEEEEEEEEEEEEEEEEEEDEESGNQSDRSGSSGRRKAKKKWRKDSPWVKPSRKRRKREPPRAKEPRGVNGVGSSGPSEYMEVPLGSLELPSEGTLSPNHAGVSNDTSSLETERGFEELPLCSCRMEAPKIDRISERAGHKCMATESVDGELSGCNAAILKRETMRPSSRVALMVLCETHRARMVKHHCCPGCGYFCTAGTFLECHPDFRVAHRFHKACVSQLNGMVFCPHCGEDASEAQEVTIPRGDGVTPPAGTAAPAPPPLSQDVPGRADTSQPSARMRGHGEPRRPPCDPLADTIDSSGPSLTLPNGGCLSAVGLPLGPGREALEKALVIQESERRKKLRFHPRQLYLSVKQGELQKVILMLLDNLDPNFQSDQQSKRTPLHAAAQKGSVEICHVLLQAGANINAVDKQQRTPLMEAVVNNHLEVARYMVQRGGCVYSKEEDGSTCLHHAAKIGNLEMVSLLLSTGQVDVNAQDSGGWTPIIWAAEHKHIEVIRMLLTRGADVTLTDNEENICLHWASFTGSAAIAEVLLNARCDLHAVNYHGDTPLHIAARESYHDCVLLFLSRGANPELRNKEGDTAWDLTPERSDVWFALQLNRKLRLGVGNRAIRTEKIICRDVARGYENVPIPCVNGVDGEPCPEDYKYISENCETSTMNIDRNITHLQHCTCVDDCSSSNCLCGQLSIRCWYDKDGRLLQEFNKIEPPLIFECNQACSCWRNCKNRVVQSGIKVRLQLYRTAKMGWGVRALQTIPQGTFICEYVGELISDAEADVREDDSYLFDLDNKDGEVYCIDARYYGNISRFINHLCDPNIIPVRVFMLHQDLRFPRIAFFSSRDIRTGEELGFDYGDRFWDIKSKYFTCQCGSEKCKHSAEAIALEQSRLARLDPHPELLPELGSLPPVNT
T1 sequence (Q9H9B1 2-1298 limits assumed): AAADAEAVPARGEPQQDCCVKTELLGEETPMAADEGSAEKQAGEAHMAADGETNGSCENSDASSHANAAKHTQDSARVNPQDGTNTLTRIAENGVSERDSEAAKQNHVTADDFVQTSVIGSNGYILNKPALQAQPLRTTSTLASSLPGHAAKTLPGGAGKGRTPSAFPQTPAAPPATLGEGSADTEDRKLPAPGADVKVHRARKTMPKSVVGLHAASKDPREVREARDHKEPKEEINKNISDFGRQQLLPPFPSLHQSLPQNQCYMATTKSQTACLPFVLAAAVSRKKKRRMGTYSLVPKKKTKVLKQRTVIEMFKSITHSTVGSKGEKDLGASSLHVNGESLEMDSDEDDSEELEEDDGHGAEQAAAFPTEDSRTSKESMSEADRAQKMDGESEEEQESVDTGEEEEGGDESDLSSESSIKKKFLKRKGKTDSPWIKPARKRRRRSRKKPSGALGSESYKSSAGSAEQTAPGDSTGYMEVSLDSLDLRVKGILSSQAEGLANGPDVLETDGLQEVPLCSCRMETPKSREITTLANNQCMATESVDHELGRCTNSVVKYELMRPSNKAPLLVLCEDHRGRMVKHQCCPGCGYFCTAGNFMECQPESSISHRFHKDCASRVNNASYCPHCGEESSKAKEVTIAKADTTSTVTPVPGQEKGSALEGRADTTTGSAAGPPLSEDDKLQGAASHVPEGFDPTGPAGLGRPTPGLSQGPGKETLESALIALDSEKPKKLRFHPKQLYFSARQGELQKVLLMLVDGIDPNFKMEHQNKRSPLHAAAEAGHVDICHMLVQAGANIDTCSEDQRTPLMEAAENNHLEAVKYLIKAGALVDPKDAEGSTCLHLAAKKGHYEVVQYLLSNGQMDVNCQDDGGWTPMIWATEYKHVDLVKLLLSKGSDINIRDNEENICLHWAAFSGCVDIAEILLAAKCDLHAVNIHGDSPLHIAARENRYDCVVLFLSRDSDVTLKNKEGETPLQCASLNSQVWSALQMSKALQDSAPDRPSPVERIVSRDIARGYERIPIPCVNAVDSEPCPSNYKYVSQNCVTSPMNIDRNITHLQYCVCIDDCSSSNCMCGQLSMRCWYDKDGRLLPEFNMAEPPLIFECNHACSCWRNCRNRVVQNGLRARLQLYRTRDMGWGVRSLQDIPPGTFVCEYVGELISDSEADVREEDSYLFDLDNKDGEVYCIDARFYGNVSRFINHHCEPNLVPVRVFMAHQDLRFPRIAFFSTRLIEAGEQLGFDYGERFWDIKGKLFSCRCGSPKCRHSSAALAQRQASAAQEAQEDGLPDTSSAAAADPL

3×MBT domain of L3MBTL1 = experiment: Triple SILAC pull-down, 3xMBT/3xMBTD355N ratio (cytoplasmic, nuclear and chromatin fractions of 293T cells); assay type: binding, human; conditions: SILAC ratio; for Protein Ratios 3xMBT/D355N: pull-down by 3xMBT vs 3xMBTD355N, 293T cells;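 on all read-outs here: proteins quantified with MaxQuant, requiring at least two unique peptides and quantification in both label directions, normalized to the mean of proteins from a digested loading control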

B1: Peptidyl-prolyl cis-trans isomerase-like 4 (protein, UniProt Q8WUA2 1-492, looked up)
Peptidyl-prolyl cis-trans …: MAVLLETTLGDVVIDLYTEERPRACLNFLKLCKIKYYNYCLIHNVQRDFIIQTGDPTGTGRGGESIFGQLYGDQASFFEAEKVPRIKHKKKGTVSMVNNGSDQHGSQFLITTGENLDYLDGVHTVFGEVTEGMDIIKKINETFVDKDFVPYQDIRINHTVILDDPFDDPPDLLIPDRSPEPTREQLDSGRIGADEEIDDFKGRSAEEVEEIKAEKEAKTQAILLEMVGDLPDADIKPPENVLFVCKLNPVTTDEDLEIIFSRFGPIRSCEVIRDWKTGESLCYAFIEFEKEEDCEKAFFKMDNVLIDDRRIHVDFSQSVAKVKWKGKGGKYTKSDFKEYEKEQDKPPNLVLKDKVKPKQDTKYDLILDEQAEDSKSSHSHTSKKHKKKTHHCSEEKEDEDYMPIKNTNQDIYREMGFGHYEEEESCWEKQKSEKRDRTQNRSRSRSRERDGHYSNSHKSKYQTDLYERERSKKRDRSRSPKKSKDKEKSKYR
Protein Ratios DMSO/UNC0638 (G9a and GLP): 1.4 | Protein Ratios 3xMBT/D355N (3×MBT domain of L3MBTL1): 4.0

B2: RNA-binding protein 15 (protein)
chain: MRTAGRDPVPRRSPRWRRAVPLCETSAGRRVTQLRGDDLRRPATMKGKERSPVKAKRSRGGEDSTSRGERSKKLGGSGGSNGSSSGKTDSGGGSRRSLHLDKSSSRGGSREYDTGGGSSSSRLHSYSSPSTKNSSGGGESRSSSRGGGGESRSSGAASSAPGGGDGAEYKTLKISELGSQLSDEAVEDGLFHEFKRFGDVSVKISHLSGSGSGDERVAFVNFRRPEDARAAKHARGRLVLYDRPLKIEAVYVSRRRSRSPLDKDTYPPSASVVGASVGGHRHPPGGGGGQRSLSPGGAALGYRDYRLQQLALGRLPPPPPPPLPRDLERERDYPFYERVRPAYSLEPRVGAGAGAAPFREVDEISPEDDQRANRTLFLGNLDITVTESDLRRAFDRFGVITEVDIKRPSRGQTSTYGFLKFENLDMSHRAKLAMSGKIIIRNPIKIGYGKATPTTRLWVGGLGPWVPLAALAREFDRFGTIRTIDYRKGDSWAYIQYESLDAAHAAWTHMRGFPLGGPDRRLRVDFADTEHRYQQQYLQPLPLTHYELVTDAFGHRAPDPLRGARDRTPPLLYRDRDRDLYPDSDWVPPPPPVRERSTRTAATSVPAYEPLDSLDRRRDGWSLDRDRGDRDLPSSRDQPRKRRLPEESGGRHLDRSPESDRPRKRHCAPSPDRSPELSSSRDRYNSDNDRSSRLLLERPSPIRDRRGSLEKSQGDKRDRKNSASAERDRKHRTTAPTEGKSPLKKEDRSDGSAPSTSTASSKLKSPSQKQDGGTAPVASASPKLCLAWQGMLLLKNSNFPSNMHLLQGDLQVASSLLVEGSTGGKVAQLKITQRLRLDQPKLDEVTRRIKVAGPNGYAILLAVPGSSDSRSSSSSAASDTATSTQRPLRNLVSYLKQKQAAGVISLPVGGNKDKENTGVLHAFPPCEFSQQFLDSPAKALAKSEEDYLVMIIVRGFGFQIGVRYENKKRENLALTLL
Relative to UNC0638 UNC Heavy (G9a and GLP; SILAC ratio DMSO/UNC0638 of protein pulled down with 3xMBT, UNC0638 in heavy SILAC media): 1.65 log base 2 | Relative to UNC0638 UNC Light (G9a and GLP; SILAC ratio DMSO/UNC0638 of protein pulled down with 3xMBT, UNC0638 in light SILAC media): 0.26 log base 2 | Protein Ratios DMSO/UNC0638 (G9a and GLP): 1.9 | Relative to UNC0638 Average (G9a and GLP; average of UNC Light and UNC Heavy experiments): 0.96 log base 2 | Candidate G9a/GLP target (G9a and GLP; reduced association with 3xMBT after UNC0638 treatment): ✓ | 3xMBT/D355N UNC Heavy (3×MBT domain of L3MBTL1; pull-down 3xMBT vs 3xMBTD355N, experiment with UNC0638 in heavy SILAC media): 2.14 log base 2 | 3xMBT/D355N UNC Light (3×MBT domain of L3MBTL1; pull-down 3xMBT vs 3xMBTD355N, experiment with UNC0638 in light SILAC media): 4.48 log base 2 | Protein Ratios 3xMBT/D355N (3×MBT domain of L3MBTL1): 9.9

B3: Apoptosis inhibitor 5 (protein, UniProt Q9BZZ5 2-524, looked up)
Apoptosis inhibitor 5: PTVEELYRNYGILADATEQVGQHKDAYQVILDGVKGGTKEKRLAAQFIPKFFKHFPELADSAINAQLDLCEDEDVSIRRQAIKELPQFATGENLPRVADILTQLLQTDDSAEFNLVNNALLSIFKMDAKGTLGGLFSQILQGEDIVRERAIKFLSTKLKTLPDEVLTKEVEELILTESKKVLEDVTGEEFVLFMKILSGLKSLQTVSGRQQLVELVAEQADLEQTFNPSDPDCVDRLLQCTRQAVPLFSKNVHSTRFVTYFCEQVLPNLGTLTTPVEGLDIQLEVLKLLAEMSSFCGDMEKLETNLRKLFDKLLEYMPLPPEEAENGENAGNEEPKLQFSYVECLLYSFHQLGRKLPDFLTAKLNAEKLKDFKIRLQYFARGLQVYIRQLRLALQGKTGEALKTEENKIKVVALKITNNINVLIKDLFHIPPSYKSTVTLSWKPVQKVEIGQKRASEDTTSGSPPKKSSAGPKRDARQIYNPPSGKYSSNLGNFNYEQRGAFRGSRGGRGWGTRGNRSRGRLY
Protein Ratios DMSO/UNC0638 (G9a and GLP): 1.6 | Protein Ratios 3xMBT/D355N (3×MBT domain of L3MBTL1): 8.6

B4: Hematological and neurological-expressed 1-like protein (protein, UniProt Q9H910 1-190, looked up)
Jupiter microtubule …: MFQVPDSEGGRAGSRAMKPPGGESSNLFGSPEEATPSSRPNRMASNIFGPTEEPQNIPKRTNPPGGKGSGIFDESTPVQTRQHLNPPGGKTSDIFGSPVTATSRLAHPNKPKDHVFLCEGEEPKSDLKAARSIPAGAEPGEKGSARKAGPAKEQEPMPTVDSHEPRLGPRPRSHNKVLNPPGGKSSISFY
Protein Ratios DMSO/UNC0638 (G9a and GLP): 1.6 | Protein Ratios 3xMBT/D355N (3×MBT domain of L3MBTL1): 8.9

B5: DDB1- and CUL4-associated factor 7 (protein, UniProt P61962 1-342, looked up)
DDB1- and CUL4-associated …: MSLHGKRKEIYKYEAPWTVYAMNWSVRPDKRFRLALGSFVEEYNNKVQLVGLDEESSEFICRNTFDHPYPTTKLMWIPDTKGVYPDLLATSGDYLRVWRVGETETRLECLLNNNKNSDFCAPLTSFDWNEVDPYLLGTSSIDTTCTIWGLETGQVLGRVNLVSGHVKTQLIAHDKEVYDIAFSRAGGGRDMFASVGADGSVRMFDLRHLEHSTIIYEDPQHHPLLRLCWNKQDPNYLATMAMDGMEVVILDVRVPCTPVARLNNHRACVNGIAWAPHSSCHICTAADDHQALIWDIQQMPRAIEDPILAYTAEGEINNVQWASTQPDWIAICYNNCLEILRV
Protein Ratios DMSO/UNC0638 (G9a and GLP): 1.5 | Protein Ratios 3xMBT/D355N (3×MBT domain of L3MBTL1): 2.8
